± gives the uncertainty stated by the source.
B1: Pituitary-specific positive transcription factor 1, residues 130 to 198; numbered along this chain, P28069 (parent)
chain: RELEKFANEFKVRRIKLGYTQTNVGEALAAVHGSEFSQTTICRFENLQLSFKNACKLKAILSKWLEEAE

Variants of: B1
Assay: abundance fitness (aPCA) (normalised: wild type 0, dead -1); higher = more abundant; growth selection in yeast, the domain comes from the species named
Conditions: Homo sapiens

| Variant | abundance fitness |
| --- | --- |
| RELEKFANEFKVKRIKLGYTQTNVGEALAAVHGSEFSQTTICRFENLQLSFKNACKLKAILSKWLEEAE [R13K] | -0.308 ± 0.13 |
| RELEKFANEFKVVRIKLGYTQTNVGEALAAVHGSEFSQTTICRFENLQLSFKNACKLKAILSKWLEEAE [R13V] | -0.734 ± 0.1 |
| RELEKFANEFKVGRIKLGYTQTNVGEALAAVHGSEFSQTTICRFENLQLSFKNACKLKAILSKWLEEAE [R13G] | -0.69 ± 0.12 |
| RELEKFANEFKVQRIKLGYTQTNVGEALAAVHGSEFSQTTICRFENLQLSFKNACKLKAILSKWLEEAE [R13Q] | -0.193 ± 0.12 |
| RELLKFANEFKVRRIKLGYTQTNVGEALAAVHGSEFSQTTICRFENLQLSFKNACKLKAILSKWLEEAE [E4L] | -0.579 ± 0.11 |
| RELGKFANEFKVRRIKLGYTQTNVGEALAAVHGSEFSQTTICRFENLQLSFKNACKLKAILSKWLEEAE [E4G] | -0.848 ± 0.35 |
| RELVKFANEFKVRRIKLGYTQTNVGEALAAVHGSEFSQTTICRFENLQLSFKNACKLKAILSKWLEEAE [E4V] | -0.072 ± 0.07 |
| RELEKFANEFKVRRIKLGYTQTNVGEALAAVHGSEFSQTTICRFENLQLSFKNWCKLKAILSKWLEEAE [A54W] | -0.302 ± 0.14 |
| RELEKFAEEFKVRRIKLGYTQTNVGEALAAVHGSEFSQTTICRFENLQLSFKNACKLKAILSKWLEEAE [N8E] | -0.168 ± 0.15 |
| RELEKFANEFKVRRIKLGYTQTNVGEALAAVHGSEFSQTTICRVENLQLSFKNACKLKAILSKWLEEAE [F44V] | -0.974 ± 0.12 |
| RELEKFANEFKVRRIKLGYTQTNVGEALAAVHGSEFSQTTICRIENLQLSFKNACKLKAILSKWLEEAE [F44I] | -0.861 ± 0.18 |
| RELEKFANEFKVRRIKLGYTQTNVGEALAAVHGSEFSQTTICRDENLQLSFKNACKLKAILSKWLEEAE [F44D] | -0.866 ± 0.28 |
| RELEKFANEFKVRRIKLGYTQTNVGEALAAVHGSEFSQTTICRHENLQLSFKNACKLKAILSKWLEEAE [F44H] | -0.565 ± 0.24 |
| RELEKFRNEFKVRRIKLGYTQTNVGEALAAVHGSEFSQTTICRFENLQLSFKNACKLKAILSKWLEEAE [A7R] | -0.7 ± 0.094 |
| RELEKFANEFKVRRIKLGYTQTNVGEALAAVHHSEFSQTTICRFENLQLSFKNACKLKAILSKWLEEAE [G33H] | -0.536 ± 0.31 |
| RELEKFANEFKVRRIKLGYTQTNVGEALAAVHGSEFSQTTICRFENLQLSFKNACKLKAICSKWLEEAE [L61C] | -0.379 ± 0.19 |
| RELEKFANEFKVRRIKLGYTQTNVGNALAAVHGSEFSQTTICRFENLQLSFKNACKLKAILSKWLEEAE [E26N] | -0.083 ± 0.1 |
| RELEKFANEFKVRRIKLGYTQTNVGEVLAAVHGSEFSQTTICRFENLQLSFKNACKLKAILSKWLEEAE [A27V] | -0.662 ± 0.17 |
| RELEKFANEFKVRRIKLGYTQTNVGEALAAVHGSEFSQTTICRFANLQLSFKNACKLKAILSKWLEEAE [E45A] | -0.415 ± 0.1 |
| RELEKFANEFKVRRIKLGYTQTNVGEALAAVHGSEFSQTTICRFENLQLSFKNACKLKAILSKTLEEAE [W64T] | -0.684 ± 0.11 |

| Variant | abundance fitness |
| --- | --- |
| RLLEKFANEFKVRRIKLGYTQTNVGEALAAVHGSEFSQTTICRFENLQLSFKNACKLKAILSKWLEEAE [E2L] | -0.672 ± 0.14 |
| RELEKFANEFKVRRIKLGYTQTNVGEALAAVHGSEFSQTTICRFENLQLYFKNACKLKAILSKWLEEAE [S50Y] | -0.822 ± 0.29 |
| RELEKFANEFKVRRIKLGYTQTNVGEALAAVHGSEFSQTTICRFENLQLLFKNACKLKAILSKWLEEAE [S50L] | -0.57 ± 0.087 |
| RELEKFANEFKVRRIKLGYTQTNVGEALAAMHGSEFSQTTICRFENLQLSFKNACKLKAILSKWLEEAE [V31M] | -0.135 ± 0.09 |
| RELEKFANEFKVRRVKLGYTQTNVGEALAAVHGSEFSQTTICRFENLQLSFKNACKLKAILSKWLEEAE [I15V] | -0.219 ± 0.077 |
| RELEKFANEFKVRRLKLGYTQTNVGEALAAVHGSEFSQTTICRFENLQLSFKNACKLKAILSKWLEEAE [I15L] | -0.196 ± 0.045 |
| RELEKFANEFKVRRPKLGYTQTNVGEALAAVHGSEFSQTTICRFENLQLSFKNACKLKAILSKWLEEAE [I15P] | -1.03 ± 0.21 |
| RELEKFANEFKVRRIKLGYTQTNVGEALAAVHGSEFSQTTICRFENLQLSFDNACKLKAILSKWLEEAE [K52D] | 0.075 ± 0.072 |
| RELEKFANEFKVRRIKLGYTQTNVGEALAAVHGSEFSQTTICRFENLQLSFKNACKLKAILSKWLEERE [A68R] | -0.232 ± 0.077 |
| RELEKFANEFKVRRIKLGYTQTNVFEALAAVHGSEFSQTTICRFENLQLSFKNACKLKAILSKWLEEAE [G25F] | -0.285 ± 0.18 |
| RELEKFANEFKVRRIKLGGTQTNVGEALAAVHGSEFSQTTICRFENLQLSFKNACKLKAILSKWLEEAE [Y19G] | -0.501 ± 0.4 |
| RELEKFANEFKVRRIKLGYTQTNVGEALAAVHGSEFSQTTICRFEHLQLSFKNACKLKAILSKWLEEAE [N46H] | -0.545 ± 0.12 |
| RELEKFANEFKVRRIKLGYTQTNVGEALAAVHGSEFSQTTICRFEPLQLSFKNACKLKAILSKWLEEAE [N46P] | -0.89 ± 0.4 |
| RELEKFANEFKVRRIKLGYTQTNVGEALAAVHGSEFSQTTICRFERLQLSFKNACKLKAILSKWLEEAE [N46R] | -0.313 ± 0.056 |
| RELEKFANEFKVRRIKLGYTQTNVGEALAAVHGSEFSQTTICRFENLQLSFKNACKLKAILSHWLEEAE [K63H] | 0.039 ± 0.2 |
| RELEKFANEFKVRRIKLGYTQTNVGEALAAVHGSEFSQTTICRFENLQLSFKNACKLKAILSKWTEEAE [L65T] | -0.935 ± 0.18 |
| RELEKFANEFKVRRIKLGYTQTNVGEALAAVHGSEFSQTTICRFENLQLSFKNACKLKAILSKWVEEAE [L65V] | -0.38 ± 0.059 |
| RELEKFANEFKVRRIKLGYTQCNVGEALAAVHGSEFSQTTICRFENLQLSFKNACKLKAILSKWLEEAE [T22C] | -0.108 ± 0.079 |
| RELEKFANEFKVRRIKLGYTQYNVGEALAAVHGSEFSQTTICRFENLQLSFKNACKLKAILSKWLEEAE [T22Y] | -0.392 ± 0.2 |
